According to patent US20180155451A1 (published 2018):

T1: FcγRIIb extracellular domain with C-terminal His tag (human, UniProt P31994 43-217)
T1 construct: extracellular domain; expressed in FreeStyle293 cells; analyte in the Biacore assay; also called FcgRIIb; 2b; not shown: His tag at the C terminus
T1 sequence (looked up): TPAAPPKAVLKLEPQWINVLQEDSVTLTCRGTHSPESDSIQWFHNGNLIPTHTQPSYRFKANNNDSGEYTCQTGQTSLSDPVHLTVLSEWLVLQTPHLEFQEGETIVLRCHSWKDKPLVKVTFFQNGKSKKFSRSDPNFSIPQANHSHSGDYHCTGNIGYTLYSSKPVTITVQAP

B1: GpH7-A5/GpH7-B3 variant K326_16H/GpL16-k0 (antibody, human IgG1, kappa)
heavy 1: not shown
heavy 2: not shown
light: DIVMTQSPLSLPVTPGEPASISCQASESLVHSNRNTYLHWYLQKPGQSPQLLIYKVSNRFSGVPDRFSGSGSGTDFTLKISRVEAEDVGVYYCSQNTHVPPTFGQGTKVEIERTVAAPSVFIFPPSDEQLKSGTASVVCLLNNFYPREAKVQWKVDNALQSGNSQESVTEQDSKDSTYSLSSTLTLSKADYEKHKVYACEVTHQGLSSPVTKSFNRGEC
notes: heterodimerized; mutation in the B3 H chain only; also called He Ab K326_16H
B2: GpH7-A5/GpH7-B3 variant G236_10E/GpL16-k0 (antibody, human IgG1, kappa)
heavy 1: not shown
heavy 2: not shown
light: B1 light
notes: heterodimerized; mutation in the B3 H chain only; also called He Ab G236_10E
B3: GpH7-A5/GpH7-B3 variant K326_08L/GpL16-k0 (antibody, human IgG1, kappa)
heavy 1: not shown
heavy 2: not shown
light: B1 light
notes: heterodimerized; mutation in the B3 H chain only; also called He Ab K326_08L
B4: GpH7-A5/GpH7-B3 variant K334_03V/GpL16-k0 (antibody, human IgG1, kappa)
heavy 1: not shown
heavy 2: not shown
light: B1 light
notes: heterodimerized; mutation in the B3 H chain only; also called He Ab K334_03V
B5: GpH7-A5/GpH7-B3 variant H268_09D/GpL16-k0 (antibody, human IgG1, kappa)
heavy 1: not shown
heavy 2: not shown
light: B1 light
notes: heterodimerized; mutation in the B3 H chain only; also called He Ab H268_09D
B6: GpH7-A5/GpH7-B3 variant K334_07I/GpL16-k0 (antibody, human IgG1, kappa)
heavy 1: not shown
heavy 2: not shown
light: B1 light
notes: heterodimerized; mutation in the B3 H chain only; also called He Ab K334_07I
B7: GpH7-A5/GpH7-B3 variant K326_19Q/GpL16-k0 (antibody, human IgG1, kappa)
heavy 1: not shown
heavy 2: not shown
light: B1 light
notes: heterodimerized; mutation in the B3 H chain only; label printed K326_190, read as K326_19Q; also called He Ab K326_19Q
B8: GpH7-A5/GpH7-B3 variant H268_18N/GpL16-k0 (antibody, human IgG1, kappa)
heavy 1: not shown
heavy 2: not shown
light: B1 light
notes: heterodimerized; mutation in the B3 H chain only; also called He Ab H268_18N
B9: GpH7-A5/GpH7-B3 variant K326_10E/GpL16-k0 (antibody, human IgG1, kappa)
heavy 1: not shown
heavy 2: not shown
light: B1 light
notes: heterodimerized; mutation in the B3 H chain only; also called He Ab K326_10E
B10: GpH7-A5/GpH7-B3 variant G236_09D/GpL16-k0 (antibody, human IgG1, kappa)
heavy 1: not shown
heavy 2: not shown
light: B1 light
notes: heterodimerized; mutation in the B3 H chain only; also called He Ab G236_09D
B11: GpH7-B3 variant L328_02A/GpL16-k0 (antibody, human IgG1, kappa)
heavy: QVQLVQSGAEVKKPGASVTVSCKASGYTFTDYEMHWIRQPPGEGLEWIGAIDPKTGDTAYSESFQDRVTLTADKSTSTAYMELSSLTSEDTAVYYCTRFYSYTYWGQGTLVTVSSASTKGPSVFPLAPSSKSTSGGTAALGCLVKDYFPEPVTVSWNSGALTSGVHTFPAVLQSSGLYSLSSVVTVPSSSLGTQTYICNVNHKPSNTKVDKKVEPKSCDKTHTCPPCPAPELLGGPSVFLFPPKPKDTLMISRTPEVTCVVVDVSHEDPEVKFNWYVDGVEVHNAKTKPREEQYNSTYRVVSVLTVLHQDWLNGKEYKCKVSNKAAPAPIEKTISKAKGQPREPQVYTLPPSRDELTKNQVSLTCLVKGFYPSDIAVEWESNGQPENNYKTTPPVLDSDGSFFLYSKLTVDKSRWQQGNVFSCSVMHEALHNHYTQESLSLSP
light: B1 light
notes: homodimerized; mutation in both H chains; also called Ho Ab L328_02A
B12: GpH7-B3 variant P238_04F/GpL16-k0 (antibody, human IgG1, kappa)
heavy: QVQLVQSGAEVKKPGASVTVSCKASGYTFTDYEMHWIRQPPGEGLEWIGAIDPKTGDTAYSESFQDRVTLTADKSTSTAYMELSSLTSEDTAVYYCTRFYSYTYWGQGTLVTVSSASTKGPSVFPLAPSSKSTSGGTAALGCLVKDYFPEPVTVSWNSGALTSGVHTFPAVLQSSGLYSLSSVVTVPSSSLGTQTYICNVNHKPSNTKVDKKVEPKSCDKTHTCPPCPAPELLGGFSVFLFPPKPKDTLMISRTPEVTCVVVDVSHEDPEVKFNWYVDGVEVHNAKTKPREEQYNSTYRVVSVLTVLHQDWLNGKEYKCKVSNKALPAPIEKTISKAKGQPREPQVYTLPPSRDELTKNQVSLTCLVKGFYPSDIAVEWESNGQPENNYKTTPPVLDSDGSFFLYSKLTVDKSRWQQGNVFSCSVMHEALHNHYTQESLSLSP
light: B1 light
notes: homodimerized; mutation in both H chains; also called Ho Ab P238_04F
B13: GpH7-B3 variant P331_20W/GpL16-k0 (antibody, human IgG1, kappa)
heavy: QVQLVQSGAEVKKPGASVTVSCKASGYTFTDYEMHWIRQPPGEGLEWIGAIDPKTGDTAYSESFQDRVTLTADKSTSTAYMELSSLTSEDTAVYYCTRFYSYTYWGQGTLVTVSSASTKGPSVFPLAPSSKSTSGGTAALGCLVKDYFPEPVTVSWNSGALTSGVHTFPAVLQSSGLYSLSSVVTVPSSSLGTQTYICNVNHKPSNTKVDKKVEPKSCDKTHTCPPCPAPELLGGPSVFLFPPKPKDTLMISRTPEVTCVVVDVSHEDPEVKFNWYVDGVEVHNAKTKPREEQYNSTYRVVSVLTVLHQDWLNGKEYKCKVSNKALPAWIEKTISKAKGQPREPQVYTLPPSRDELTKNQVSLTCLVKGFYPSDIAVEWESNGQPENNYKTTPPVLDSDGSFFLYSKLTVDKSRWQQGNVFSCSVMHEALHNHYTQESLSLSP
light: B1 light
notes: homodimerized; mutation in both H chains; also called Ho Ab P331_20W
B14: GpH7-B3 variant V266_06M/GpL16-k0 (antibody, human IgG1, kappa)
heavy: not shown
light: B1 light
notes: homodimerized; mutation in both H chains; also called Ho Ab V266_06M
B15: GpH7-B3 variant P238_15Y/GpL16-k0 (antibody, human IgG1, kappa)
heavy: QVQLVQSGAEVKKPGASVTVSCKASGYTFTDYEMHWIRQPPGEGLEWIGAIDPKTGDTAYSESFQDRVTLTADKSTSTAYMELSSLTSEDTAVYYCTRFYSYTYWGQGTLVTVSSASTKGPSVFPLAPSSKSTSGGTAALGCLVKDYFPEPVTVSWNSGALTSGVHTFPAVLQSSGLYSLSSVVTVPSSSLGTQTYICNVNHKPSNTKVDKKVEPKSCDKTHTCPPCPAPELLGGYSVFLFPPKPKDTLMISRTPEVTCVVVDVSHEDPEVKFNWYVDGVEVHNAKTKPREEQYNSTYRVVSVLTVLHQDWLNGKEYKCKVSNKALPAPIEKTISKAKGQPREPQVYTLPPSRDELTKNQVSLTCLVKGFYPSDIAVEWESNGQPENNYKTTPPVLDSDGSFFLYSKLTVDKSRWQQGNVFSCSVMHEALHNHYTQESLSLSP
light: B1 light
notes: homodimerized; mutation in both H chains; also called Ho Ab P238_15Y
B16: GpH7-B3 variant S337_16H/GpL16-k0 (antibody, human IgG1, kappa)
heavy: not shown
light: B1 light
notes: homodimerized; mutation in both H chains; also called Ho Ab S337_16H
B17: GpH7-B3 variant S239_03V/GpL16-k0 (antibody, human IgG1, kappa)
heavy: not shown
light: B1 light
notes: homodimerized; mutation in both H chains; also called Ho Ab S239_03V
B18: GpH7-B3 variant T335_15Y/GpL16-k0 (antibody, human IgG1, kappa)
heavy: not shown
light: B1 light
notes: homodimerized; mutation in both H chains; also called Ho Ab T335_15Y
B19: GpH7-B3 variant P331_16H/GpL16-k0 (antibody, human IgG1, kappa)
heavy: not shown
light: B1 light
notes: homodimerized; mutation in both H chains; also called Ho Ab P331_16H
B20: GpH7-B3 variant Y296_20W/GpL16-k0 (antibody, human IgG1, kappa)
heavy: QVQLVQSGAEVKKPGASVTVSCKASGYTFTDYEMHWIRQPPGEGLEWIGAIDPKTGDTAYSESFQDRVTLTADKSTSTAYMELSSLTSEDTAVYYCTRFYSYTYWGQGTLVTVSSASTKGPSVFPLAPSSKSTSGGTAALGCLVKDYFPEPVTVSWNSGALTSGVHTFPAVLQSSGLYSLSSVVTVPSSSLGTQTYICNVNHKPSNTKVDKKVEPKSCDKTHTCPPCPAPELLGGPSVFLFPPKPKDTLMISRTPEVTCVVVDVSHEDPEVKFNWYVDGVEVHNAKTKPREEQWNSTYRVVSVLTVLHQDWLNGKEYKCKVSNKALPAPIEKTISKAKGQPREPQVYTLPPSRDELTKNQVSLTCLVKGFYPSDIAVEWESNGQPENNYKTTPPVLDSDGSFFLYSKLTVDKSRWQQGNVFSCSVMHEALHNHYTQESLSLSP
light: B1 light
notes: homodimerized; mutation in both H chains; also called Ho Ab Y296_20W
B21: GpH7-B3 variant L328_13S/GpL16-k0 (antibody, human IgG1, kappa)
heavy: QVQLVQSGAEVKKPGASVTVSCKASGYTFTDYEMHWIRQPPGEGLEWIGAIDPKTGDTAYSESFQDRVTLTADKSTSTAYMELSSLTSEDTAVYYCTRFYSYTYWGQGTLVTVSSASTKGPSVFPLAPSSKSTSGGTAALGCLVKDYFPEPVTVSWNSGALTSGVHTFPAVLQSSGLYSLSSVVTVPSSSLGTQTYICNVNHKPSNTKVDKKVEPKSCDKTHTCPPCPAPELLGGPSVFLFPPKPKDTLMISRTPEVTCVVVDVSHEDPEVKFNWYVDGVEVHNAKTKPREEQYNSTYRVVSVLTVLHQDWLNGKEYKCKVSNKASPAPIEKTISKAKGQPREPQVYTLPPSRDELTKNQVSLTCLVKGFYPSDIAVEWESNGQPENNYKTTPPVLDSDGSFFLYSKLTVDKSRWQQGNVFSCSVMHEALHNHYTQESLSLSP
light: B1 light
notes: homodimerized; mutation in both H chains; also called Ho Ab L328_13S
B22: GpH7-B3 variant P238_09D/GpL16-k0 (antibody, human IgG1, kappa)
heavy: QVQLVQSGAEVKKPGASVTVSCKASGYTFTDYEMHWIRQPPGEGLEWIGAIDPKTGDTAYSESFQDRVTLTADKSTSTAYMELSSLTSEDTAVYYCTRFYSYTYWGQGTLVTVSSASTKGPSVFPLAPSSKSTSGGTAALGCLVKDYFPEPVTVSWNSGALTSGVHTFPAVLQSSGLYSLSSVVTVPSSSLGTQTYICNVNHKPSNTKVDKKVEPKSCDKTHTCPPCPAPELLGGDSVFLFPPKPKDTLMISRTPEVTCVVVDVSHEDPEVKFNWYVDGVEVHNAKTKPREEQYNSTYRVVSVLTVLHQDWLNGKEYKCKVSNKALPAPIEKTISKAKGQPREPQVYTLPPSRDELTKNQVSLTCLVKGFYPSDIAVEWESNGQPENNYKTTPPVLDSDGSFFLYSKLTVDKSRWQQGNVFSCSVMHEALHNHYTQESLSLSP
light: B1 light
notes: homodimerized; mutation in both H chains; also called Ho Ab P238_09D
B23: GpH7-B3 variant T335_10E/GpL16-k0 (antibody, human IgG1, kappa)
heavy: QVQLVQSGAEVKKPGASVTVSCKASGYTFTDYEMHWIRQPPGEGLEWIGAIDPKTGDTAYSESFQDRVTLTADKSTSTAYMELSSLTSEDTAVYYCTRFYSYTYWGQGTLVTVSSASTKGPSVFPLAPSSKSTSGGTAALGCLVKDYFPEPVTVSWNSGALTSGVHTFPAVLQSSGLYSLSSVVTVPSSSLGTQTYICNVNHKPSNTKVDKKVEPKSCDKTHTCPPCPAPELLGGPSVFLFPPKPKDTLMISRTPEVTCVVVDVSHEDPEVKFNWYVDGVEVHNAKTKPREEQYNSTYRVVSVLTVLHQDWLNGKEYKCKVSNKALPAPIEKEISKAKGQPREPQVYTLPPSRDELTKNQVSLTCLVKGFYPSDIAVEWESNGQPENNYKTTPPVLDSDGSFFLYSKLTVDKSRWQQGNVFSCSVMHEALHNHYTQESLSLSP
light: B1 light
notes: homodimerized; mutation in both H chains; also called Ho Ab T335_10E
B24: GpH7-B3 variant P331_15Y/GpL16-k0 (antibody, human IgG1, kappa)
heavy: not shown
light: B1 light
notes: homodimerized; mutation in both H chains; also called Ho Ab P331_15Y
B25: GpH7-B3 variant S324_06M/GpL16-k0 (antibody, human IgG1, kappa)
heavy: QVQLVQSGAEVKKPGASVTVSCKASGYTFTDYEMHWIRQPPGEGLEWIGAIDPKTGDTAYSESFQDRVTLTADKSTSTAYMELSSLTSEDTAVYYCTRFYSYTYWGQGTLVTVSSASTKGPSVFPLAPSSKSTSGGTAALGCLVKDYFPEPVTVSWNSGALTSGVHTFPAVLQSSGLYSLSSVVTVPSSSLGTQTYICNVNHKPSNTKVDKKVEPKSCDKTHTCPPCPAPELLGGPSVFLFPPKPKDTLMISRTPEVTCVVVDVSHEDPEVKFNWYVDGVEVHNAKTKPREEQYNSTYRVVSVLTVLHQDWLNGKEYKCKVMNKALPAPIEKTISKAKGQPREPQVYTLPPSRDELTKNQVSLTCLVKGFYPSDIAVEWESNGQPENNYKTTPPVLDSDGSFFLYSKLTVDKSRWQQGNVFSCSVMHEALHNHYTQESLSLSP
light: B1 light
notes: homodimerized; mutation in both H chains; also called Ho Ab S324_06M
B26: GpH7-B3 variant S267_19Q/GpL16-k0 (antibody, human IgG1, kappa)
heavy: not shown
light: B1 light
notes: homodimerized; mutation in both H chains; also called Ho Ab S267_19Q
B27: GpH7-B3 variant S239_10E/GpL16-k0 (antibody, human IgG1, kappa)
heavy: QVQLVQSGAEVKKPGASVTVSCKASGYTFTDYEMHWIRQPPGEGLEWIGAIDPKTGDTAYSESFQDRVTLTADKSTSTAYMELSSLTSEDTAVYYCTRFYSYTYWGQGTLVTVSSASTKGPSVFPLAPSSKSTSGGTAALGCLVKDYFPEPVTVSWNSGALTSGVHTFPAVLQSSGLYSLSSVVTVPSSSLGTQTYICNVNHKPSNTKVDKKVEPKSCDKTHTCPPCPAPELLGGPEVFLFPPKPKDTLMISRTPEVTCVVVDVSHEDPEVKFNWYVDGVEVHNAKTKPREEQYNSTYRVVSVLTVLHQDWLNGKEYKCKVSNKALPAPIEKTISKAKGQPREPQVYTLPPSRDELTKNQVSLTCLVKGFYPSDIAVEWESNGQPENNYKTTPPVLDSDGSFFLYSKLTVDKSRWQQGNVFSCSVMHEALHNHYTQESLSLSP
light: B1 light
notes: homodimerized; mutation in both H chains; also called Ho Ab S239_10E
B28: GpH7-B3 variant S267_06M/GpL16-k0 (antibody, human IgG1, kappa)
heavy: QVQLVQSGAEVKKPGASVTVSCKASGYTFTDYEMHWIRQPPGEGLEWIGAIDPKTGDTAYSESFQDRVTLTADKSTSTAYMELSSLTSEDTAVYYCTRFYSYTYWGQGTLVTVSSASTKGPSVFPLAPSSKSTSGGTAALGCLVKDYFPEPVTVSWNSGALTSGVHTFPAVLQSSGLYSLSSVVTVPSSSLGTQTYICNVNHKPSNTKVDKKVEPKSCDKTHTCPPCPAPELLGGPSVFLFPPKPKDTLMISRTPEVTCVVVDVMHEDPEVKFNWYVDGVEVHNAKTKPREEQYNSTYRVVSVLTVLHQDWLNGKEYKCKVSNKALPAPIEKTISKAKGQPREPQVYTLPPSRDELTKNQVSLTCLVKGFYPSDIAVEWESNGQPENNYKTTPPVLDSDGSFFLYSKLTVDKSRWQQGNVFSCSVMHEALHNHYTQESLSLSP
light: B1 light
notes: homodimerized; mutation in both H chains; also called Ho Ab S267_06M
B29: GpH7-B3 variant T335_07I/GpL16-k0 (antibody, human IgG1, kappa)
heavy: not shown
light: B1 light
notes: homodimerized; mutation in both H chains; also called Ho Ab T335_07I

target: T1, FcγRIIb extracellular domain with …; experiment: SPR (Biacore), captured antibody, FcγRIIb analyte; binding relative to GpH7-A5/GpH7-B3/GpL16-k0 = 100

He/Con_2b	Binder
119 % of control	B1
110 % of control	B2
177 % of control	B3
125 % of control	B4
239 % of control	B5
119 % of control	B6
139 % of control	B7
156 % of control	B8
200 % of control	B9
167 % of control	B10

target: T1, FcγRIIb extracellular domain with …; experiment: SPR (Biacore), captured antibody, FcγRIIb analyte; binding relative to GpH7-B3/GpL16-k0 = 100

Ho/Con_2b	Binder
117 % of control	B11
209 % of control	B12
111 % of control	B13
231 % of control	B14
114 % of control	B15
103 % of control	B16
108 % of control	B17
104 % of control	B18
100 % of control	B19
103 % of control	B20
147 % of control	B21
207 % of control	B22
108 % of control	B23
111 % of control	B24
104 % of control	B25
185 % of control	B26
175 % of control	B27
187 % of control	B28
104 % of control	B29
